Assay results from the supplement of paper PMC7877785.
± gives the uncertainty stated by the source.

Test: self-splicing fitness, log relative to wild type (ln ratio); higher = more splicing; Tetrahymena group I intron in knt gene, E. coli kanamycin selection, DiMSum; sequences stand for … in CUCUCU…GGAGGGAAAAGUUAUCAGGCAUGCACCUGGUAGCUAGUCUUUAAACCAAUAGAUUGCAUCGGUUUAAAAGGCAAGACCGUCAAAUUGCGGGAAAGGGGUCAACAGCCGUUCAGUACCAAGUCUCAGGGGAAACUUUGAGAUGGCCUUGCAAAGGGUAUGGUAAUAAGCUGACGGACAUGGUCCUAACCACGCAGCCAAGUCCUAAGUCAACAGAUCUUCUGUUGAUAUGGAUGCAGUUCACAGACUAAAUGUCGGUCGGGGAAGAUGUAUUCUUCUCAUAAGAUAUAGUCGGACCUCUCCUUAAUGGGAGCUAGCGGAUGAAGUGAUGCAACACUGGAGCCGCUGGGAACUAAUUUGUAUGCGAAAGUAUAUUGAUUAGUUUUGGAGUACUCGUGGUCG
In short: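 DiMSum derived fitness as the error-weighted combination of fold changes across replicates, kanamycin versus no kanamycin, normalised to wild type. E. coli BL21(DE3) held the library, which randomised all eight P1ex-region intron nucleotides within the knt kanamycin-resistance gene on pET-22b(+). Six replicate transformations grew overnight at 37°C or 30°C on LB agar with or without 25 μg/mL kanamycin, also containing 100 μg/mL carbenicillin, 50 μM IPTG and 0.2% rhamnose, and pooled colonies were amplicon-sequenced on an Illumina HiSeq 2500.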

In the case of GAGCAGCAAUAUUACGCUCU, the “self-splicing fitness (ln)” value (30 °C) is reported as -3.46 ± 0.28.

In the case of GAGCAGCAAUAUUACGCUGA, the “self-splicing fitness (ln)” value (30 °C) is reported as -2.8 ± 0.19 and the “self-splicing fitness (ln)” value (37 °C) is reported as -2.13 ± 0.2.

With GAGCAGCAAUAUUACGGAAG the “self-splicing fitness (ln)” value (30 °C) was -3.65 ± 0.21 and the “self-splicing fitness (ln)” value (37 °C) was -3.24 ± 0.26.

For GAGCAGCAAUAUUACGGCAU, the “self-splicing fitness (ln)” value (30 °C) was -0.308 ± 0.081 and the “self-splicing fitness (ln)” value (37 °C) was -0.549 ± 0.094.

In the case of GAGCAGCAAUAUUACGGCUA, the “self-splicing fitness (ln)” value (30 °C) is reported as -0.634 ± 0.1 and the “self-splicing fitness (ln)” value (37 °C) is reported as -0.0591 ± 0.15.

With GAGCAGCAAUAUUACGGGUC the “self-splicing fitness (ln)” value (30 °C) was -3.07 ± 0.18 and the “self-splicing fitness (ln)” value (37 °C) was -1.91 ± 0.17.

In the case of GAGCAGCAAUAUUACGGUGU, the “self-splicing fitness (ln)” value (30 °C) is reported as -2.84 ± 0.093 and the “self-splicing fitness (ln)” value (37 °C) is reported as -1.56 ± 0.09.

For GAGCAGCAAUAUUACGUAAA, the “self-splicing fitness (ln)” value (30 °C) was -1.89 ± 0.14 and the “self-splicing fitness (ln)” value (37 °C) was -1.13 ± 0.14.

With GAGCAGCAAUAUUACGUACC the “self-splicing fitness (ln)” value (30 °C) was -0.46 ± 0.12 and the “self-splicing fitness (ln)” value (37 °C) was -0.225 ± 0.14.

In the case of GAGCAGCAAUAUUACGUCGG, the “self-splicing fitness (ln)” value (30 °C) is reported as -4.09 ± 0.31 and the “self-splicing fitness (ln)” value (37 °C) is reported as -3.07 ± 0.28.

In the case of GAGCAGCAAUAUUACGUGAG, the “self-splicing fitness (ln)” value (30 °C) is reported as -2.06 ± 0.069 and the “self-splicing fitness (ln)” value (37 °C) is reported as -0.264 ± 0.07.

For GAGCAGCAAUAUUACGUUGU, the “self-splicing fitness (ln)” value (30 °C) was -3.37 ± 0.14 and the “self-splicing fitness (ln)” value (37 °C) was -2.16 ± 0.15.

For GAGCAGCAAUAUUACGUUUC, the “self-splicing fitness (ln)” value (30 °C) was -3.37 ± 0.14 and the “self-splicing fitness (ln)” value (37 °C) was -2.2 ± 0.22.

For GAGGAGCAAUAUUACGAAGA, the “self-splicing fitness (ln)” value (30 °C) was -2.19 ± 0.24 and the “self-splicing fitness (ln)” value (37 °C) was -1.95 ± 0.32.

With GAGGAGCAAUAUUACGACCU the “self-splicing fitness (ln)” value (30 °C) was -2.45 ± 0.41.

With GAGGAGCAAUAUUACGAUCC the “self-splicing fitness (ln)” value (30 °C) was -1.49 ± 0.31 and the “self-splicing fitness (ln)” value (37 °C) was -1.12 ± 0.27.

In the case of GAGGAGCAAUAUUACGCCAA, the “self-splicing fitness (ln)” value (37 °C) is reported as -1.6 ± 0.48.

With GAGGAGCAAUAUUACGCCAU the “self-splicing fitness (ln)” value (30 °C) was -3.46 ± 0.47 and the “self-splicing fitness (ln)” value (37 °C) was -2.37 ± 0.41.

For GAGGAGCAAUAUUACGCCUA, the “self-splicing fitness (ln)” value (30 °C) was -1.68 ± 0.27 and the “self-splicing fitness (ln)” value (37 °C) was -0.955 ± 0.16.

With GAGGAGCAAUAUUACGCGUU the “self-splicing fitness (ln)” value (30 °C) was -3.99 ± 0.39 and the “self-splicing fitness (ln)” value (37 °C) was -2.2 ± 0.36.

For GAGGAGCAAUAUUACGCUCC, the “self-splicing fitness (ln)” value (37 °C) was -0.714 ± 0.48.

With GAGGAGCAAUAUUACGCUGA the “self-splicing fitness (ln)” value (30 °C) was -2.84 ± 0.49 and the “self-splicing fitness (ln)” value (37 °C) was -2.07 ± 0.34.

For GAGGAGCAAUAUUACGGACG, the “self-splicing fitness (ln)” value (30 °C) was -3.42 ± 0.36 and the “self-splicing fitness (ln)” value (37 °C) was -0.785 ± 0.49.

In the case of GAGGAGCAAUAUUACGGACU, the “self-splicing fitness (ln)” value (30 °C) is reported as -1.49 ± 0.14 and the “self-splicing fitness (ln)” value (37 °C) is reported as -1.22 ± 0.28.

For GAGGAGCAAUAUUACGGAGU, the “self-splicing fitness (ln)” value (37 °C) was -2.57 ± 0.34.

With GAGGAGCAAUAUUACGGAUG the “self-splicing fitness (ln)” value (30 °C) was -3.77 ± 0.27 and the “self-splicing fitness (ln)” value (37 °C) was -2.48 ± 0.24.

In the case of GAGGAGCAAUAUUACGGGCC, the “self-splicing fitness (ln)” value (30 °C) is reported as -2.4 ± 0.4.

In the case of GAGGAGCAAUAUUACGUACA, the “self-splicing fitness (ln)” value (30 °C) is reported as -3.14 ± 0.32 and the “self-splicing fitness (ln)” value (37 °C) is reported as -0.612 ± 0.2.

In the case of GAGGAGCAAUAUUACGUGCA, the “self-splicing fitness (ln)” value (30 °C) is reported as -3.41 ± 0.34 and the “self-splicing fitness (ln)” value (37 °C) is reported as -1.31 ± 0.17.

For GAGGAGCAAUAUUACGUGCU, the “self-splicing fitness (ln)” value (30 °C) was -4.62 ± 0.42 and the “self-splicing fitness (ln)” value (37 °C) was -2.32 ± 0.21.

For GAGGAGCAAUAUUACGUUCG, the “self-splicing fitness (ln)” value (30 °C) was -1.89 ± 0.2 and the “self-splicing fitness (ln)” value (37 °C) was -1.27 ± 0.23.

With GAGGAGCAAUAUUACGUUCU the “self-splicing fitness (ln)” value (30 °C) was -2.2 ± 0.2 and the “self-splicing fitness (ln)” value (37 °C) was -2.4 ± 0.33.

In the case of GAGGAGCAAUAUUACGUUGG, the “self-splicing fitness (ln)” value (37 °C) is reported as -1.46 ± 0.42.

In the case of GAGUAGCAAUAUUACGACGC, the “self-splicing fitness (ln)” value (30 °C) is reported as -0.488 ± 0.12 and the “self-splicing fitness (ln)” value (37 °C) is reported as 0.137 ± 0.14.

With GAGUAGCAAUAUUACGAGCA the “self-splicing fitness (ln)” value (30 °C) was -2.06 ± 0.21 and the “self-splicing fitness (ln)” value (37 °C) was 0.532 ± 0.14.

In the case of GAGUAGCAAUAUUACGAGGC, the “self-splicing fitness (ln)” value (37 °C) is reported as -2.86 ± 0.44.

In the case of GAGUAGCAAUAUUACGAUAC, the “self-splicing fitness (ln)” value (30 °C) is reported as -2.31 ± 0.21 and the “self-splicing fitness (ln)” value (37 °C) is reported as -2.92 ± 0.24.

In the case of GAGUAGCAAUAUUACGCAGA, the “self-splicing fitness (ln)” value (30 °C) is reported as -3 ± 0.26 and the “self-splicing fitness (ln)” value (37 °C) is reported as -2.41 ± 0.31.

With GAGUAGCAAUAUUACGCCGC the “self-splicing fitness (ln)” value (30 °C) was -2.89 ± 0.25 and the “self-splicing fitness (ln)” value (37 °C) was -1.29 ± 0.33.

In the case of GAGUAGCAAUAUUACGCCGG, the “self-splicing fitness (ln)” value (30 °C) is reported as -1.99 ± 0.35.

With GAGUAGCAAUAUUACGCCGU the “self-splicing fitness (ln)” value (37 °C) was -1.08 ± 0.27.

In the case of GAGUAGCAAUAUUACGCGAU, the “self-splicing fitness (ln)” value (30 °C) is reported as -2.26 ± 0.21 and the “self-splicing fitness (ln)” value (37 °C) is reported as -2.21 ± 0.39.

For GAGUAGCAAUAUUACGCGCA, the “self-splicing fitness (ln)” value (30 °C) was -1.93 ± 0.15 and the “self-splicing fitness (ln)” value (37 °C) was -0.701 ± 0.2.

With GAGUAGCAAUAUUACGCGUU the “self-splicing fitness (ln)” value (30 °C) was -2.44 ± 0.095 and the “self-splicing fitness (ln)” value (37 °C) was -0.8 ± 0.09.

For GAGUAGCAAUAUUACGGAAA, the “self-splicing fitness (ln)” value (30 °C) was -3.15 ± 0.17 and the “self-splicing fitness (ln)” value (37 °C) was -2.03 ± 0.12.

In the case of GAGUAGCAAUAUUACGGAUC, the “self-splicing fitness (ln)” value (30 °C) is reported as -0.928 ± 0.092 and the “self-splicing fitness (ln)” value (37 °C) is reported as -0.167 ± 0.12.

For GAGUAGCAAUAUUACGGCCA, the “self-splicing fitness (ln)” value (30 °C) was -1.95 ± 0.18 and the “self-splicing fitness (ln)” value (37 °C) was 0.281 ± 0.26.

With GAGUAGCAAUAUUACGGCCG the “self-splicing fitness (ln)” value (30 °C) was -1.24 ± 0.15 and the “self-splicing fitness (ln)” value (37 °C) was -0.0588 ± 0.23.

In the case of GAGUAGCAAUAUUACGGCGG, the “self-splicing fitness (ln)” value (30 °C) is reported as -4.56 ± 0.36 and the “self-splicing fitness (ln)” value (37 °C) is reported as -2.02 ± 0.21.

In the case of GAGUAGCAAUAUUACGGUAC, the “self-splicing fitness (ln)” value (30 °C) is reported as -2.69 ± 0.37 and the “self-splicing fitness (ln)” value (37 °C) is reported as -2.01 ± 0.33.

For GAGUAGCAAUAUUACGGUCU, the “self-splicing fitness (ln)” value (30 °C) was -1.24 ± 0.15 and the “self-splicing fitness (ln)” value (37 °C) was -1.22 ± 0.17.
